Experimental data published in paper PMC5665922, “Modulation of the Vault Protein-Protein Interaction for Tuning of Molecular Release” (Scientific Reports, 2017).

Legend:
[1] = molecular target: T1, Histidine-tagged INT-interacting MVP domains (His-iMVP), major vault protein domains 3 to 5; assay: SPR; Biacore 3000, His-iMVP immobilised on CM5 (1010 RU), His-INT/DSA/3H injected at 0.12, 0.25 or 0.5 μM, 25 °C, pH 6.0; apparent constants; conditions: both partners purified
T1 construct: major vault protein (MVP), domains 3, 4 and 5 including the gap between domains 2 and 3, residues 102-276, PCR-amplified from the CP-MVP gene; numbers count on: PDB 2QZV; Cloned NdeI/BamHI in pET-28a; also called MVP domains 3 to 5; source: E. coli BL21(DE3), purified (HisTrap HP; SEC for SPR); not shown: His6, N-terminal, kept

[2] = molecular target: T1, Histidine-tagged INT-interacting MVP …; assay: SPR; Biacore 3000, His-iMVP amine-coupled to CM5 (410, 1860 or 1240 RU), His-INT or variant injected, 25 °C, 50 mM PBS, 150 mM NaCl, pH 7.4; 1-to-1 Langmuir fit; apparent constants; conditions: both partners purified
[3] = molecular target: the molecule itself; assay: SEC; His-INT alone at 0.05, 0.01 and 0.005 mM on Superdex 75 10/300 GL; dimer (D) and monomer (M) peaks; dimer to monomers

B1: His-INT/DSA/3H (His-INT with histidines substituted at the interaction surface) (domain or fragment)
chain: CIQHWQDAVPWTELLSLQTEDGFWKLTPELGLILNLNTNGLHSFLKQKGIQSLGVKGRECLLDLIATMLVLQFIRTRLEKEGIVFKSLMKMDDASISRNIPWAFEAIKQASEWVRRTEGQYPSICPRLELGNHWDHHTKQLLGLQPISTVSPLHRVLHYSQG
Kd [1]: 24 nM
koff [1]: 0.000258 s⁻¹
kon [1]: 10800 M⁻¹ s⁻¹
Kd [2]: 90 nM
koff [2]: 0.00134 s⁻¹
kon [2]: 14900 M⁻¹ s⁻¹

B2: Histidine-tagged vault-interacting domain of vault poly(ADP-ribose)-polymerase (His-INT) (domain or fragment, UniProt Q9UKK3 1563-1724, looked up)
chain: CIQHWQDAVPWTELLSLQTEDGFWKLTPELGLILNLNTNGLHSFLKQKGIQSLGVKGRECLLDLIATMLVLQFIRTRLEKEGIVFKSLMKMDDASISRNIPWAFEAIKQASEWVRRTEGQYPSICPRLELGNDWDSATKQLLGLQPISTVSPLHRVLHYSQG
notes: vault poly(ADP-ribose)-polymerase (VPARP), C-terminal INT domain, residues 1563-1724 of GenBank AF158255; Cloned NdeI/XhoI in pET-28a; Monomer and dimer in equilibrium; also called wild-type INT; full-length His-INT; source: E. coli BL21(DE3), purified (HisTrap HP, SEC; M fraction used); not shown: His6, N-terminal, kept
stoichiometry N [3]: 2
